Entries after “also recorded” stand apart in the source; their conditions may differ.

Results on three molecules are retold here after PMC9935901, “B-lymphoid tyrosine kinase-mediated FAM83A phosphorylation elevates pancreatic tumorigenesis through interacting with β-catenin” (Signal Transduction and Targeted Therapy, 2023).

In experiment [1] the test system is FAM83A expression. In words: FAM83A expression after Wnt3a treatment in PANC-1 cells. It counts as cell-based, human. The source says: Fig. 7 FAM83A is a direct downstream target of Wnt/β-catenin signaling and forms positive feedback in pancreatic cancer cells. a–d Representative western blotting images of the protein and mRNA levels of FAM83A after Wnt3a treatment for indicated concentrations and times in PANC-1 cells (n = 3). e, f The protein and mRNA levels of FAM83A after β-catenin knockdown in PANC-1 cells. Cell lysates were used for western blotting with the indicated antibodies (n = 3). g FAM83A gene promoter-reporter luciferase activity in HEK293T cells with or without β-catenin overexpression (left) and PANC-1 cells with or without β-catenin knockdown (right) (n = 6). h The schematic diagram of FAM83A gene promoter truncation and deletion generation. i PACN-1 cells were subjected to chromatin immunoprecipitation using antibodies against TCF4 and IgG, and the fold change of TCF/IgG was quantified (n = 3). j Predicted TCF4/LEF-binding sequence in the FAM83A gene promoter from the JASPAR website. k Schematic diagram of the generated luciferase report plasmids and the relative luciferase activity after transfection with the plasmids in HEK293T cells with or without Wnt3a treatment (n = 6). l A ChIP experiment was used to detect binding between the β-catenin-TCF4 complex and the predicted TCF/LEF-binding element in the FAM83A promoter (TBE1 and TBE2). […]

For experiment [2], the system named is FAM83A localization. In words: FAM83A nuclear translocation upon Wnt3a treatment. It counts as cell-based. Conditions: confocal microscopy, nucleo-plasmic separation; Wnt3a 100 ng/mL; HEK293T, PANC-1. As to the method: Protein interactions were analyzed by western blotting (n = 3). Scale bars: 10 µm. *P < 0.05; **P < 0.01; ***P < 0.001. Data were presented as mean ± SD
Protein interactions were analyzed by western blotting (n = 3). c The level of β-catenin ubiquitination with or without Flag-tagged FAM83A overexpression or BLK kinase knockdown after MG132 treatment in HEK293T cells. Cell lysates were used for IP and western blotting with the indicated antibodies (n = 3). d The level of β-catenin ubiquitination with or without Flag-tagged FAM83A, Y138A, or Y138D mutants overexpression after MG132 treatment in HEK293T cells. […] Cell lysates were used for IP and western blotting with the indicated antibodies (n = 3). f The localization of Flag-tagged FAM83A and its Y138A, Y138D mutants in HEK293T cells were analyzed with confocal microscopy. g The protein level of cytoplasmic and nuclear β-catenin in HEK293T cells with or without Flag-tagged FAM83A, Y138A, or Y138D mutants transfection and Wnt3a treatment. […]

Experiment [3] deals with β-catenin destruction complex. In words: Co-IP, β-catenin with AXIN1 and GSK3β in PANC-1 cells. The experiment is classed as cell-based, human. Conditions: peptide treatment or GFP-fusion transfection, n = 3.
The subject of experiment [4] is β-catenin ubiquitination (HEK293T cells). In words: β-catenin ubiquitination in HEK293T cells. It counts as cell-based. Conditions: GFP-fusion transfection, n = 3.
For experiment [5], the system named is β-catenin stability. In words: β-catenin protein stability upon CHX treatment in PANC-1 cells. The experiment is classed as cell-based, human. Conditions: peptide treatment or GFP-fusion transfection, n = 3. On the procedure:
Fig. 8 Peptides disrupting FAM83A-β-catenin interaction inhibit Wnt/β-catenin signaling. a Identification of β-catenin binding α-helical peptide(s) in FAM83A DUF1669 (140aa–210aa) region. The secondary structure of the FAM83A DUF1669 (140aa–210aa) region was analyzed based on the PDB data (4urj). b The FaPC, FaP1, FaP2, and FaP3 fragments were constructed into pEGFP-C1 expression vector connection with a flexible linker ((GGGGS)n). The interactions between β-catenin and the four fragments were evaluated with Co-IP assays in HEK293T cells (n = 3). c, d The predicted docking model of FaP2, FaP3 with β-catenin 530–666 aa region. e, f Kinetic interactions of cell-penetrating peptide TAT-linked peptides with β-catenin was determined by surface plasmon resonance analyses. g Effect of CP-FaP2 and CP-FaP3 on β-catenin-FAM83A and β-catenin-TCF4 interactions in PANC-1 cells. Cells were treated with control (CP-FaPC), CP-FaP2, and CP-FaP3 (5 μM) for 24 hours. Cell lysates were used for IP and western blotting with the indicated antibodies (n = 3). h The schematic diagram of 7TGC plasmid construction and the fluorescence images of PANC-1 cells with control, CP-FaP2, and CP-FaP3 treatment. […]

B1: Wnt3a: Wnt agonist, Abcam ab153563 (protein, UniProt P56704 19-352, looked up)
Protein Wnt-3a: SYPIWWSLAVGPQYSSLGSQPILCASIPGLVPKQLRFCRNYVEIMPSVAEGIKIGIQECQHQFRGRRWNCTTVHDSLAIFGPVLDKATRESAFVHAIASAGVAFAVTRSCAEGTAAICGCSSRHQGSPGKGWKWGGCSEDIEFGGMVSREFADARENRPDARSAMNRHNNEAGRQAIASHMHLKCKCHGLSGSCEVKTCWWSQPDFRAIGDFLKDKYDSASEMVVEKHRESRGWVETLRPRYTYFKVPTERDLVYYEASPNFCEPNPETGSFGTRDRTCNVSSHGIDGCDLLCCGRGHNARAERRREKCRCVFHWCCYVSCQECTRVYDVHTCK
For the molecule B1, the “FAM83A mRNA level” value in experiment [1] is “elevated both the protein and mRNA levels of FAM83A in dose- and time-dependent manners”. The FAM83A protein level entry in experiment [1] (n = 3) was “elevated both the protein and mRNA levels of FAM83A in dose- and time-dependent manners”. For the same molecule, the FAM83A nuclear translocation entry in experiment [2] is “FAM83A shifted from the cell cytoplasm to nucleus upon Wnt3a treatment; also recorded: increased the nuclear translocation of FAM83A”.

B2: GFP-FaP2: FaP2 fused with GFP via a flexible linker ((GGGGS)n), pEGFP-C1 expression vector, transfected (protein)
chain: ASAEKPYLKEKSSATVYFQTVKHNNIRDLVRRCITRTSQVLVILMDVFTDVEIFCDILEAANKRGVFVCVLLDQGGVKLFQEMCDKVQISDSHLKNISIRSVEGEIYCAKSGRKFAGQIREKFIISDWRFVLSGSYSFTWLCGHVHRNILSKFTGQAVELFDEEFRHLYASSKPVMGLKSPRL
modifications: left off: EGFP (from the vector pEGFP-C1), end not stated, kept
notes: FaP2 fused with GFP via a flexible linker ((GGGGS)n), pEGFP-C1 expression vector, transfected
On to B2, for which the “assembly of β-catenin destruction complex” value in experiment [3] was “improved”. The β-catenin ubiquitination entry in experiment [4] is listed as “improved”. Moreover, the “stability of β-catenin” value in experiment [5] is “decreased”.

B3: GFP-FaP3: FaP3 fused with GFP via a flexible linker ((GGGGS)n), pEGFP-C1 expression vector, transfected (protein)
chain: ASAEKPYLKEKSSATVYFQTVKHNNIRDLVRRCITRTSQVLVILMDVFTDVEIFCDILEAANKRGVFVCVLLDQGGVKLFQEMCDKVQISDSHLKNISIRSVEGEIYCAKSGRKFAGQIREKFIISDWRFVLSGSYSFTWLCGHVHRNILSKFTGQAVELFDEEFRHLYASSKPVMGLKSPRL
modifications: left off: EGFP (from the vector pEGFP-C1), end not stated, kept
notes: FaP3 fused with GFP via a flexible linker ((GGGGS)n), pEGFP-C1 expression vector, transfected
For the molecule B3, in experiment [3], the “assembly of β-catenin destruction complex” value is listed as “improved”. The β-catenin ubiquitination entry in experiment [4] was “improved”. Moreover, the “stability of β-catenin” value in experiment [5] was “decreased”.
